Data as given in the domain aggregation screens of Martell et al. (2025).

Test: soluble fraction after stress (log2 fold change); higher = more stays soluble; pooled small domains, quantitative proteomics
Conditions: stress: 75 degC
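Note: 20 min heating vs room temperature control held 20 min.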

Sequence | soluble fraction (log2)
HMNQSEMIGSRLKEERLQQKLTLKQLSEKVGLSIGYLSQVERGYGTLSLSALKKLSSALGLEMSTFFD | -2.43
HMGEESIAELISNPKLSDAKRTVILDLLSRGLTVDQIKPYIQSDDPYTAEQLQFELYKLFFTQI | -0.578
HMGQVLEGVFRRKANGKNAFIPDGGGEPILVAERNSAHAMDGDRVKATLLARRKHHVREAQVTEILKRSSK | -0.258
HMTPTPQQNNILVGQTGTTLTRLAPMGKVRVGEVTAEAKTIDGYINPRQSVEVIGFENTVVIVRAV | -0.748
HMQMPLTMATMGEVNKIVKVGGNEETRRFLANLGFVAGAEVVVLSKIGGNVIVNVKDSRVAVNEDMARHIM | -1.19
HMYFGDADGNKKVDAADALYLKRHLADWEDYRELPQKTNVSWMDEASPANLMILERHIAGWKDYEMLPYT | -0.425
HMRTDTIINSGGLKINPEEVENEILKSLGDNNFFIDKIKNDKFGEEIILIALKKIKINLLIESLNLI | 0.0576
HMGETYTIPDVRGYTLEDAMELPEIKENGFTIIEGRQIVDADVPVGQIISQTPEAESIAKSNVKEITVNIS | 0.239
HMGLLGIYPNPVEGGSVRLLSDADLFGSRFELYDQSGKLVLNGFVTEGNFVSVKGISSGLYISVSYT | 0.245
HMRFSYLNIETRKDISSLINKSEITHSSYNNNEYLYKIKSKKTDDFKDLISLIDEKDLISYSIDS | -1.14
HMASITLDQAKEIALTHAGQTADAVWFEKAEQDYDDGILVYELEFAAKGTEYEYEIDAQTGAIREYKWDD | 0.238
HMEEQQIQLIQMKMEKDHKYVGKKISELRIKNMLIVLIKRGDEDIIPRAEVKIKEGDILVLSAQSYEG | -0.424
HMRIQLNFSDQLLDDVMSEALKHIDRKSQEHHIEKQMDDEFMLVYIDARLIIQVIVNIINNAIKY | 0.168
HMALTAEVLRSLIKHHGLGQSIQRTAKAVGLSASTVKKYFDRIAAANLTWQEAKSRTQEELIASLQPT | -0.813
HMTALISGNKAMQMLELSRHSFEKIVKDGLLSIVHEGDKKYYEIGEVEAFMGSDTYKELVNGV | 0.449
HMGRAAEETETFRTQGELDARIKELQGQMRDAAANLEFERAAGLRDTLKRLRTRGLGLSASP | 0.0633
HMHRNLSFEEEKEFLSAYTKQAEAGQIVDLNEMKAAYIEKVGHSIGGSQIYRMLERHGWRKVM | -0.446
HMDSIKDQIYQILKEDILTGELRSGEQLVEQTIAARFNTSRSPVREAIKQLTGDGLVINITNKGTFVK | 0.227
HMDSFEEGTYRKNQRGFGFVKIENQEDEIFISKENSLNALNGDRVIVEIIEDKDRTKRAEGKIKKILKHE | 0.531
HMLAIELDDKPGSLLRALEIFAKRNLNIEYMYAFTEKRGDKAVMIFKFSDIETAKKSLLEEGFN | -2.11
HMENVRKTEWVTISNDKSQTRTTVYFESGNQKLDKHPQIQGFEYQRTYVEGGVKYYLFVEKGTKLDE | 0.0189
HMGGPEVLELEDVKVGSPGPDEIKVTNHAIGLNYIDTYHRSGLYPLKLPSGIGLEAAGKVEEIGSNV | 0.00701
HMIQADFIPQVEQRLADRGLSMSGDVMAAFLDRAGYGLRHVSNEIEKLSLYLGDRKKVTVEDVVQMVAPVR | -0.381
HMKRDEYIAQLKKYLKRLPKKEYDSAIEYFTEYFDEAGPERELEVIQELGQPKEAAKEMLLQLLNE | -0.105
HMWSLLVILQLREGGQRFSQLQRAIPDISQRMLTQTLRKLERDGLVSRKVTPSTPPRVDYAITELGH | -0.841
HMPKSVRQSFVYSPMYRDVEYLADFLRNNNKDDSSVSASGDKLVYYGTADEIARVKSVLKGVDV | -0.00252
HMYAGTVTQVKNNKVMLEFDGETVNVGDQFFILNSDGKKVAIVEITAAKNKKALANVLKGKAVVDGTTQAK | -0.476
HMSPVPRIEIELTSSKEDGSWTWRAVGAREPRGSLDGALLAKPAAVGDVLRVETDQFLDGMTVTAILPPRD | -0.263

Sequence | soluble fraction (log2)
HMANLNFDMSQIVASRYQEKAAELGVTAPSLARTDYNTQEQATYEFVAREIIADYYDDRVAPFNDLIPE | -0.191
HMAFRWQQIADTITSMIANGSYPRGSRLPTEAALADSFGVNRHTVRRAVAALRDTGLVQPRQGAGVFVIG | -2.02
HMDKNNLHSVLQDVPGIGPKRMKELMRAFGSVEGMKKAGLEELAAVKGMNHKAAEALIQFFR | 0.163
HMTTAASIGRLVRDARKQRGLTQHELASLLSTSQSAIHRIESGNQNLSLEMINRIAQALESPLIVPGG | -0.377
HMSKSENLYSAARELIPGGVNSPVRAFTGVGGTPLFIEKADGAYLYDVDGKAYIDYVGSWGPMVLGHNHP | -0.337
HMAPPTAEFFAHLPAEALSAVRRSVEEGNARGIDEAILRVETLDGEAGRVLRGLAARYEYGRILELTQR | 0.103
HMKINYNEFLRRFLGEKEGDIIEMETGKRIGTHKGYWFHTIGQRKGLGLGGGPWFVIRKDIDENIIYVSHG | -1.3
HMKVMTNAELGRIIKEARIARRMTQSEVVGDFITRNMLSQIENGNAAPSMRTLQYLMDVLDIHINIE | -3.02
HMDGTEVTTEPPGAQVEYEGKQFGPTPARIPGLVAGKSLHITLPGYLEVKPKIKAVPKDGEPLSFTLTAI | -0.0613
HMELTDRQKQIIEIVKKQQPISGEKIASILGFARATLRPDFSLLTMSGILQAKPKVGYLINEE | -0.63
HMTEAIDVPNLVGQNYSDVKSNSSYKFNWDIINVYDSGKPEGEIIKQEPEAGSKKVKENAVITLTVN | 0.538
HMSTDKIDIVSSAILSSLKDNDGFIGLTDKSPPPEIYTAFRVSKKVFKQAIGALYKQRRITLESSGIRLIS | -0.288
HMLRISEEVWALVEKTLREDWSPEQVSGKLKASGISVSHERIYQHIYADKRVGGTLWTHLRR | -2.47
HMAEKAVELTENEKAIQTILSNGALEIGELKTKLELSGKQWDVALKGLAKHGITQVSKVEGVVTVGL | 0.359
HMAKIPASTVVEIDGAPVVVAVRVNARARSYRLSIPHSGGPLLTLPPHGKWAEAEAFLLRHHNWLAARLHR | -2.92
HMPKLPIIYVLDGHVNKNALTTSGKNKVWIEHELKKHHINSIKDVLIAMTDTEGKFYYQLYD | -1.77
HMARLEELSNGSIVEGLLSGEAVTVVSTKWYGSSSMEVFYKTNRGSTGSQILYREDEPSLTVLEKS | -0.831
HMKMSVEEVNLSPRTTNALINNDIKTMKDLVALTDTELRDLKGFGSKAYEEVKEKLSELGLSTQ | 0.503
HMDSGLLSAREREVAGLVLSGMTYAEIGEAIFISPRTAEHHIARIRRRLGATSRTDLIAKLQAIVGID | -3.41
HMKLRSIQEQVQYLEKVDNQKAMQIILNMNDKASAVQILRNMKKEKAAAILAQMDPLQAAQILEDLA | -0.34
HMEEPEYELLRQAVLALPEKYRLPIHLYYYEEYSVREIAEILQRKESAVQTQLQRGREKIRRSLTEKGVS | -0.874
HMGGSVYTVQKGDTLWSIAKEQLGSPLRYAEIYDLNKDVIEEAARGRGKKDSSNGHWLVVGTSLQIPEAT | 0.184
HMAKRKTEKTSVLEEIDGVGKARARALLARFGGLSGVKAASPEELRTVRGITPEIAENIRRYFQ | -0.0813
HMGQQPPVTEIYKNHDGNKDGLLEAGEVTGSRYARQFPRWDVNGDQKVSPQEVIAFRKRFGIAADGTLL | 0.0193
HMYSYSGSVSNTHDVPVSVVLKDAEGVAIASWDLQAKQSLNISAKDIATSSGTIEITGDGVSETKTVTFTK | 1.03
HMDELVYVPNITGKTVEEARTELQKRDLGLNIAGHQFSDEFGKGRIISQDPAAGSRLKVNRSISVIVSSGQ | 0.0849
HMDHKSQLQEWAQSTLGETPRYVTIAETGPDHDKELTVELIIGRKSYSIAKGKSKKQAEQSAARIALGLLM | -1.99
